Experimental data published in patent US20140161804A1 (AbbVie / Abbott, published 2014).

Key:
[1] = target: T1, Human IL-17A (human, UniProt Q16552 20-155, limits assumed); assay: ELISA, captured DVD-Ig, biotin-human IL-17 titrated
T1 construct: Biotinylated in the ELISAs; purified recombinant protein in SPR; also called hIL17A; hIL-17
Description: The following protocol is used to characterize the binding of TNF/IL-17 DVD-Ig proteins to human TNF and IL-17 by enzyme-linked immunosorbent assay (ELISA). An ELISA plate was coated with 50 μl per well of goat anti mouse IgG-Fc at 2 μg/ml, overnight at 4° C. The plate was washed 3 times with PBS/Tween. 50 μl Mab diluted to 1 μg/ml in PBS/0.1% BSA was added to appropriate wells and incubated for 1 hour at room temperature (RT). The plate was washed 3 times with PBS/Tween. 50 μl of serial diluted biotin-human TNF or IL-17 was added to appropriate wells and incubated for 1 hour at RT. The plate was washed 3 times with PBS/Tween. 50 μl of streptavidin-HRP diluted 1:10,000 in PBS/0.1% BSA was added to appropriate wells and incubated for 1 hour at RT. The plate was washed 3 times with PBS/Tween. 50 μl of TMB was added to appropriate wells and the reaction allowed to proceed for 1 minute. The reaction was stopped with 50 μl/well 2N H₂SO₄ and the absorbance read at 450 nm.

[2] = target: T2, Rhesus TNFa (rhesus, UniProt P48094 77-233); assay: SPR (Biacore T200), DVD-Ig captured by anti-human IgG Fc, antigen in solution
T2 construct: also called Rhesus TNF-alpha
Description: (§1) The binding of antibodies to purified recombinant IL-17 and TNFα proteins were determined by surface plasmon resonance-based measurements with a Biacore® T200 instrument (GE Healthcare) using running HBS-EP (10 mM HEPES [pH 7.4], 150 mM NaCl, 3 mM EDTA, and 0.005% surfactant P20) containing 0.1 mg/ml BSA at 25° C. All chemicals were obtained from Biacore® AB (GE Healthcare) or otherwise from a different source as described in the text. Approximately 5000 RU of goat anti-human IgG (Fcγ) fragment specific polyclonal antibody (Pierce Biotechnology Inc, Rockford, Ill.) diluted in 10 mM sodium acetate (pH 4.5) was directly immobilized across a CM5 research grade biosensor chip using a standard amine coupling kit according to manufacturer's instructions and procedures at 25 ug/ml. Unreacted moieties on the biosensor surface were blocked with ethanolamine. Modified carboxymethyl dextran surface in flowcell 2, 3 and 4 were used as a reaction surface. Modified carboxymethyl dextran with goat IgG in flow cell 1 was used as the reference surface. For kinetic analysis, rate equations derived from the 1:1 Langmuir binding model were fitted simultaneously to association and dissociation phases of all six injections (using global fit analysis with local float for Rmax) with the use of Biacore T200 Evaluation software v.1.0. Purified antibodies were diluted in HEPES-buffered saline for capture across goat anti-human IgG specific reaction surfaces. Antibodies to be captured as ligand (1-5 μg/ml) were injected over reaction matrices at a flow rate of 50 μl/minute. Association phase was monitored for 5 minutes, while dissociation phase was monitored for 10-60 minutes to accommodate for slower off-rates. The association and dissociation rate constants, ka (unit M-1 s-1) and kd (unit s-1) were determined under a continuous flow rate of 50 μl/minute. Rate constants were derived by making kinetic binding measurements at six different antigen concentrations ranging from 0.78 nM to 100 nM, depending on the species of IL-17 or TNFα tested. The association ka, dissociation rate kd and equilibrium dissociation constant KD were calculated with the use of the same Biacore T200 Evaluation software v.1.0.

[3] = target: T1, Human IL-17A; assay: as above
Description: as §1

[4] = target: T3, Cynomolgus monkey IL-17A (cynomolgus monkey, UniProt A0A2K5TTB0 24-155); assay: as above
T3 construct: also called Cyno IL-17AA; Cyno IL17AA
Description: as §1

T1 sequence (Q16552 20-155 limits assumed): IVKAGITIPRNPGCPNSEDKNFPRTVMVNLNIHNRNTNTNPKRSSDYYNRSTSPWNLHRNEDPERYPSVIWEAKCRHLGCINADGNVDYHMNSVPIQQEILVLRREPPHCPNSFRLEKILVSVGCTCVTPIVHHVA
T3 sequence (A0A2K5TTB0 entry or part of it): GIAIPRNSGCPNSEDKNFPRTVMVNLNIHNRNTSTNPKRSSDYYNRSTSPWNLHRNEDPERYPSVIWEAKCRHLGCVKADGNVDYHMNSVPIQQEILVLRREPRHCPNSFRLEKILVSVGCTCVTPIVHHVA
T2 sequence (P48094 77-233 limits assumed): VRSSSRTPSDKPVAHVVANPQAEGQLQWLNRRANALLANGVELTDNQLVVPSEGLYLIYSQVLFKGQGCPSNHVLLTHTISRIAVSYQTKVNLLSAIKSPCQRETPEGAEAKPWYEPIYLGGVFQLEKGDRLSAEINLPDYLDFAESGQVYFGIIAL

Row | Binder | EC50 [1] [nM] | Kd [2] [nM] | koff [2] [s⁻¹] | kon [2] [M⁻¹ s⁻¹] | Kd [3] [nM] | koff [3] [s⁻¹] | kon [3] [M⁻¹ s⁻¹] | Kd [4] [nM] | koff [4] [s⁻¹] | kon [4] [M⁻¹ s⁻¹]
1 | hMAK195-21-h10F7-M11.8 DVD-Ig wt (bispecific antibody, human IgG1, kappa, DVD-Ig; wild-type IgG1, kappa; GS10 linkers; also called HMAK195-21-h10F7-M11.8 HC DVD wt) heavy: not shown light: DIQMTQSPSSLSASVGDRVTITCRASQLVSSAVAWYQQKPGKAPKLLIYWASARHTGVPSRFSGSGSGTDFTLTISSLQPEDFATYYCQQHYKTPFTFGQGTKLEIKRGGSGGGGSGDIQMTQSPSSLSASVGDRVTITCRASSGIISYIDWFQQKPGKAPKRLIYATFDLASGVPSRFSGSGSGTDYTLTISSLQPEDFATYYCRQVGSYPETFGQGTKLEIKRTVAAPSVFIFPPSDEQLKSGTASVVCLLNNFYPREAKVQWKVDNALQSGNSQESVTEQDSKDSTYSLSSTLTLSKADYEKHKVYACEVTHQGLSSPVTKSFNRGEC | 0.11 | 0.031 | 0.000141 | 4.56e+06 | 0.0386 | 9.26e-06 | 239000 | 0.0109 | 2.21e-06 | 203000
2 | hMAK195-24-h10F7-M11.8 DVD-Ig wt (bispecific antibody, human IgG1, kappa, DVD-Ig; wild-type IgG1, kappa; GS10 linkers; also called HMAK195-24-h10F7-M11.8 HC DVD wt) heavy: not shown light: DIQMTQSPSSLSASVGDRVTITCKASQLVSSAVAWYQQKPGKAPKLLIYWASTLHTGVPSRFSGSGSGTDFTLTISSLQPEDFATYYCQQHYRTPFTFGQGTKLEIKRGGSGGGGSGDIQMTQSPSSLSASVGDRVTITCRASSGIISYIDWFQQKPGKAPKRLIYATFDLASGVPSRFSGSGSGTDYTLTISSLQPEDFATYYCRQVGSYPETFGQGTKLEIKRTVAAPSVFIFPPSDEQLKSGTASVVCLLNNFYPREAKVQWKVDNALQSGNSQESVTEQDSKDSTYSLSSTLTLSKADYEKHKVYACEVTHQGLSSPVTKSFNRGEC | 0.12 | 0.0752 | 0.00046 | 6.12e+06 | 0.0363 | 8.48e-06 | 233000 | 0.0201 | 4.29e-06 | 214000
3 | hMAK195-24-h10F7-M11.8 DVD-Ig (bispecific antibody, human IgG1, kappa, L234A L235A, DVD-Ig; IgG1 234,235 mut, kappa; GS10 linkers; also called hMAK195-24-GS10-M11 DVD) heavy: not shown light: DIQMTQSPSSLSASVGDRVTITCKASQLVSSAVAWYQQKPGKAPKLLIYWASTLHTGVPSRFSGSGSGTDFTLTISSLQPEDFATYYCQQHYRTPFTFGQGTKLEIKRGGSGGGGSGDIQMTQSPSSLSASVGDRVTITCRASSGIISYIDWFQQKPGKAPKRLIYATFDLASGVPSRFSGSGSGTDYTLTISSLQPEDFATYYCRQVGSYPETFGQGTKLEIKRTVAAPSVFIFPPSDEQLKSGTASVVCLLNNFYPREAKVQWKVDNALQSGNSQESVTEQDSKDSTYSLSSTLTLSKADYEKHKVYACEVTHQGLSSPVTKSFNRGEC | 0.084 | 0.0716 | 0.000343 | 4.78e+06 | 0.0427 | 1.07e-05 | 251000 | 0.0241 | 6.25e-06 | 259000
4 | hMAK195-21-h10F7-M11.8 DVD-Ig (bispecific antibody, human IgG1, kappa, L234A L235A, DVD-Ig, TNF outer / IL-17 inner domain; IgG1 234,235 mut, kappa; GS10 linkers; also called hMAK195-21-GS10-M11 DVD) heavy: not shown light: DIQMTQSPSSLSASVGDRVTITCRASQLVSSAVAWYQQKPGKAPKLLIYWASARHTGVPSRFSGSGSGTDFTLTISSLQPEDFATYYCQQHYKTPFTFGQGTKLEIKRGGSGGGGSGDIQMTQSPSSLSASVGDRVTITCRASSGIISYIDWFQQKPGKAPKRLIYATFDLASGVPSRFSGSGSGTDYTLTISSLQPEDFATYYCRQVGSYPETFGQGTKLEIKRTVAAPSVFIFPPSDEQLKSGTASVVCLLNNFYPREAKVQWKVDNALQSGNSQESVTEQDSKDSTYSLSSTLTLSKADYEKHKVYACEVTHQGLSSPVTKSFNRGEC | 0.095 | 0.0254 | 0.000132 | 5.21e+06 | 0.0434 | 1.05e-05 | 242000 | 0.0253 | 6.28e-06 | 248000
5 | hMAK199-4-h10F7-M11.8 DVD-Ig (bispecific antibody, human IgG1, kappa, L234A L235A, DVD-Ig; IgG1 234,235 mut, kappa; GS10 linkers; also called HMAK199-4-GS10-H10F7-M11 DVD) heavy: not shown light: DIQMTQSPSSLSASVGDRVTITCRASQDIENYLNWYQQKPGKAPKLLIYYTSRLQSGVPSRFSGSGSGTDFTLTISSLQPEDFATYFCQQGNTQPPTFGQGTKLEIKRGGSGGGGSGDIQMTQSPSSLSASVGDRVTITCRASSGIISYIDWFQQKPGKAPKRLIYATFDLASGVPSRFSGSGSGTDYTLTISSLQPEDFATYYCRQVGSYPETFGQGTKLEIKRTVAAPSVFIFPPSDEQLKSGTASVVCLLNNFYPREAKVQWKVDNALQSGNSQESVTEQDSKDSTYSLSSTLTLSKADYEKHKVYACEVTHQGLSSPVTKSFNRGEC | 0.13 | 0.00772 | 2.25e-05 | 2.91e+06 | 0.0271 | 8.76e-06 | 323000 | 0.00861 | 2.57e-06 | 299000
6 | hMAK199-4-h10F7-M11.8 DVD-Ig wt (bispecific antibody, human IgG1, kappa, DVD-Ig; wild-type IgG1, kappa; GS10 linkers; Uncertain; also called HMAK199-4-h10F7-M11.8 HC DVD wt) heavy: not shown light: DIQMTQSPSSLSASVGDRVTITCRASQDIENYLNWYQQKPGKAPKLLIYYTSRLQSGVPSRFSGSGSGTDFTLTISSLQPEDFATYFCQQGNTQPPTFGQGTKLEIKRGGSGGGGSGDIQMTQSPSSLSASVGDRVTITCRASSGIISYIDWFQQKPGKAPKRLIYATFDLASGVPSRFSGSGSGTDYTLTISSLQPEDFATYYCRQVGSYPETFGQGTKLEIKRTVAAPSVFIFPPSDEQLKSGTASVVCLLNNFYPREAKVQWKVDNALQSGNSQESVTEQDSKDSTYSLSSTLTLSKADYEKHKVYACEVTHQGLSSPVTKSFNRGEC | 0.1 | 0.00813 | 2.48e-05 | 3.05e+06 | 0.0259 | – | 311000 | 0.0113 | 3.15e-06 | 278000
